# Test: soluble on expression in E. coli; label from the status in PepcDB or PDB records
row,Sequence,soluble on expression in E. coli
1,MASHKLLVTPPKALLKPLSIPNQLLLGPGPSNLPPRIMAAGGLQMIGSMSKDMYQIMDEIKEGIQYVFQTRNPLTLVISGSGHCALEAALVNVLEPGDSFLVGANGIWGQRAVDIGERIGARVHPMTKDPGGHYTLQEVEEGLAQHKPVLLFLTHGESSTGVLQPLDGFGELCHRYKCLLLVDSVASLGGTPLYMDRQGIDILYSGSQKALNAPPGTSLISFSDKAKKKMYSRKTKPFSFYLDIKWLANFWGCDDQPRMYHHTIPVISLYSLRESLALIAEQGLENSWRQHREAAAYLHGRLQALGLQLFVKDPALRLPTVTTVAVPAGYDWRDIVSYVIDHFDIEIMGGLGPSTGKVLRIGLLGCNATRENVDRVTEALRAALQHCPKKKL,soluble
2,MGSDKIHHHHHHMVSRSPFESFQWKSDIFNCESTDIDNFYLLLEQEMTRLGMVEKNLGEVGKYKVSLYQSPAAKSGLPSLLISAGFHGEESAGPWGLLHFLSEASADLFERVNLSLLPLVNPTGFSRGHRFNKYGENPNRGFVFENGKPKANEHTSVEGKLLLDHAQLLIAACRDGILTCHEDVLSREAYVYSFEPSQVPGRFSLDLRDTLGGYFPIAVDGEIDACPVKDGLIFNHFDTSFEACLVRSGARVGACTETPALQNFDQRVLANSAAMTHFLALCAPLCD,not soluble
3,HSHSDKHPVTWQPSKDGDRLIGRILLNKRLKDGSVPRDSGAMLGLKVVGGKMTESGRLCAFITKVKKGSLADTVGHLRPGDEVLEWNGRLLQGATFEEVYNIILESKPEPQVELVVSR,soluble
4,SESQDIKALQKELEQFAKLLKQKRITLGYTQADVGLTLGVLFGKVFSQTTICRFEALQLSFKNMCKLRPLLQKWVEEADNNENLQEICKAETLVQARKRKRTSIENRVRGNLENLFLQCPKPTLQQISHIAQQLGLEKDVVRVWFCNRRQKGKRSSSDYAQ,soluble
5,EPRRPRAGPEELGKILQGVVVVLSGFQNPFRSELRDKALELGAKYRPDWTRDSTHLICAFANTPKYSQVLGLGGRIVRKEWVLDCHRMRRRLPSQRYLMAGPGSSSEEDEASHSGG,soluble
6,AIAYRDRYPYYDGEVYDDTGVVFPENIERRPNGRRVIVEEPEDYGMPNDRGVEDEYDERNPFRGGHSMQPWNQSPFDHFDRLFETPFAGLDRGSFGGMFGNIEQSLRRLEEDFARGAGRGNAHVYSFSSKKHFGPEGEVYEESTTTTREGNRTEVRRHLKDSAAGNEEYAWKREIDGRGREVIRRRDGSGQEVTKENYYNLTPEERAQFEQQWRTLAREGLDWRGSEGNNASLPQLSDRSSWMEHDRNEHRGGLGGFFRKLFKHD,soluble
7,MSLDLPSRPPAPPEGVIGRRIRYADALEPEREEWFVAGTELAEVTAPEAPTPRIETPADGMIIALDPDIPARNQKLILRARPARAGMSFLLDGRPVGPAETPVKWPPEPGGHVLKLMDDRGRTLDLVKFQVRGMREGHHHHHH,soluble
8,MGSDKIHHHHHHVLIKSIKLTNILSFGEAAETIELRPLNVVIGPNGSGKSNLIAAIELFRALPKDAPAFFRREGGIHDWLWKGGEIPPVATIESVFDEKGPLSGLRYALRFTVVGQHFEIIEERIEEEAAEGAQTPPPYHFKDGRGALRALLANEGEIKAWSFVIPSEIDPTQSILAQRKDPHQYPELTSLGAVLPTMRCYREWTMGPQSPPRQDQKTDLRNDYLDPYGAGNLALVLQRLGNKPALKKRFLEALRLLYEGIDDYGVTIEGGTSQIFFHEGGRFTIPASRLSDGTLRYLCLLAILLDPAPPPLLCIEEPELGLHPDILPTLADLLKEASERTQVIVTTHSDGLVDAMTDRPEAVLIAEKNENGTTLTRLDGETLKPWLAKYRLGELWTRGGIGGTRW,not soluble
9,MAEPGGHEGPASTQRAKVCETHTAMVFFVEDRVYKRKKPVDLGFLDYTTRSSRRAVCEREIELNRRFAPDVYLGLGELRTPGEQEAEPLVVMRRMPDDRRLSHLVRTGAPVADDLRAVARHLAAWHSAAPRGPAIAEQGTRDALAARWEASFTQVDVLAAKGPTRDEAGEVERLVRRYLAGRKPLFGLRIEQGRVLDGHGDLLADDVFCLGDGPRILDCLEFDDALRYVDGLDDAAFLAMDLESLGAPESAAFFLAQYGEYSGDPAPPSLWHHYVAYRAFVRAKVSLIQARQGAPGAHATARRLVRMALRHLRASAVGLTLVAGLPGTGKSTLSGALADRLGAVLLSSDRLRKEMAGLSPQQTASADYGEGLYTPEWTARTYAELLDRAAALLALGESVVLDATWIDSAQREAARHTAESAGADLVALHCHVPDDVTAARLSTRAPGASDADLGVAEAMAAEEQPWSGAVGVDTGGSLEAAVGQALAAVRPWGSDQAKVFRRPYMEPDLEHHHHHH,not soluble
10,MAAAKVALTKRADPAELRTIFLKYASIEKNGEFFMSPNDFVTRYLNIFGESQPNPKTVELLSGVVDQTKDGLISFQEFVAFESVLCAPDALFMVAFQLFDKAGKGEVTFEDVKQVFGQTTIHQHIPFNWDSEFVQLHFGKERKRHLTYAEFTQFLLEIQLEHAKQAFVQRDNARTGRVTAIDFRDIMVTIRPHVLTPFVEECLVAAAGGTTSHQVSFSYFNGFNSLLNNMELIRKIYSTLAGTRKDVEVTKEEFVLAAQKFGQVTPMEVDILFQLADLYEPRGRMTLADIERIAPLEEGTLPFNLAEAQRQKASGDSARPVLLQVAESAYRFGLGSVAGAVGATAVYPIDLVKTRMQNQRSTGSFVGELMYKNSFDCFKKVLRYEGFFGLYRGLLPQLLGVAPEKAIKLTVNDFVRDKFMHKDGSVPLAAEILAGGCAGGSQVIFTNPLEIVKIRLQVAGEITTGPRVSALSVVRDLGFFGIYKGAKACFLRDIPFSAIYFPCYAHVKASFANEDGQVSPGSLLLAGAIAGMPAASLVTPADVIKTRLQVAARAGQTTYSGVIDCFRKILREEGPKALWKGAGARVFRSSPQFGVTLLTYELLQRWFYIDFGGVKPMGSEPVPKSRINLPAPNPDHVGGYKLAVATFAGIENKFGLYLPLFKPSVSTSKAIGGGP,not soluble
11,PRLEFEKPVIELQTKIAELKKFTQDSDMDLSAEIERLEDRLAKLQDDIYKNLKPWDRVQIARLADRPTTLDYIEHLFTDFFECHGDRAYGDDEAIVGGIAKFHGLPVTVIGHQRGKDTKENLVRNFGMPHPEGYRKALRLMKQADKFNR,not soluble
12,MLYIFTPTFNRGYRLSYLYDSLCNQTNKNFIWLIVDDGSEDSTKEIVSNYIKENKVSIVYLYKRNGGKHSAYNLAMRYMQPSDYHVCVDSDDWLLEDAVEIIFKDLESLTLSNRYVGLVYPRYSLNQGNNWLNPKILEVNIPDLKYKYHLKIETCIVINNAYLVDFEFPCFEGENFLSEEIMYIYLSKKGYFCPQNRKIYCFDYLEDGLTSNIFKLWRKNFKGTIFSLENSYMYVMSFPNIFDRWWSAIKIKMNIQALKMTTLGVIPTLKSEEAGWKILLGFSYLWKVARFKKSELEHHHHHH,soluble
13,MGSDKIHHHHHHMINTDHPIRIAIAGLGFGESVHIPASLSNKNIELVGLWHPRPERLKEACNKHNLRAYETWEDLVNDSKVDGIIIATPPAPRYELALEAIKGGKHLLLEKPTCLNAYEVMELQRNALKRNLKIAVDYEYRAVPLFMQAKRIITEKKLDEPYFVKLDWLMSSRANPDRPWNWYSDENSGGGVLGALGTHAFDMIHWLIGPTHSLSAINSTSIEERECPQSKTIKKVTSEDVSISQLQIKSINNNLIPAQVNLSAVTKQSRGFSLEIYGSNGTLVLSSENQNDYVHGFGLWYSNKGDVLKNIQPDSDLSFSKIWTDGRIAPVARIQNWWAQSIADGTPVIPGLVEGLASQIVCDKVKESNSIGMKIEIN,not soluble
14,MLPVSCKLPNMGTYQSYLSSSMPAGCVLPVGGNFEILLHYYLLNYAKKCHQSEETMVSMIIANALLGIPKVLYKSKTGKYSFPHTYIRAVHALQTNQPLVSSQTGLESVMGKYQLLTSVLQCLTKILTIDMVITVKRHPQKVHNQDSEDELLEHHHHHH,not soluble
15,MESSSTASQSGSRREATRQKLYEAAVTLIAEQGFSATTVDEIAERAGVAKGTVYYNFASKSVLFEELLRHGVGLLTASLRQAAERTAREGRGRVDALDAMIRAGLVFIDRYPAFTQLYVAELWRTNRAWQSTLLVVRQEAVAVVEGVLREGVASGEFSEDIDVPLTAAALVGMVLVAALDWKAFQPERSLDDVHAALSRLLQGRVSGRG,not soluble
16,AGSNGAQEKKYIVGFKQTMSTMSAAKKKDVISEKGGKVQKQFKYVDAASATLNEKAVKELKKDPSVAYVEEDHVAHAY,soluble
17,GPGSMASTSGPASLEEAALASLGNYSPEQLQMAETALRAVLMEKVQALAAEHGDAFIQSLVQKEIARTRKMETELANVKKRLGVQERCVDSMRMDVRKVKAQEEKSKYICQNLQETARRREQLTEKMQPEMEAYRSDVRERVSENVQSIWAECEKRRERVETVEAEVTELEAGLAHKKETFERSFAEFQDGLKGRTAEYQELIVAYQEATKEVELIEAQLMLVRRERQSVETTRAALQQQLEVYEKQFDGFAEAVMKPEDVEALAKRQHDQAQMRITELEAEKTNVHQQRLQMDKELTDLRAKHASLKREMQQLEKAKTAAEKKCRQAQQSRQEKK,not soluble
18,MTDKQAIREQMWQEMTEKKVGRFPFPLKGRIPNFKGAEQATRHLIQLEAYKQAKVVKVNPDSPQLPLRAQVLMDGKTLLVPTPRLKDGFILVKPEWVPEGEERKAVSLRNILSYGKVISLTEMPEIDLIVMGSVAVDRSGRRIGKGEGYADREYAIIRELGNRPVPVVTTVHQVQLVDVELPRDAYDVTVDWIATTEGLMQSVGAIEKPTGIVWSEVTEEELEAMPVLREIRELTKRQLEHHHHHH,soluble
19,MAHHHHHHMLSGITFEIFLFNFEIYHDFSSPLLFSLAIRIVIACGIPSMTNSSVQQVGCRVTYIWLSGKDSHHDIRSKDRTIYISPDDLEKDPKELLRLDMFPVWNFDGSSTGQAEGLITEIHIKPVNAYHCCIPRASSSVPWIVVLAECFLPTGEPTPDNSRAVARRIFDKGLGTHPWFGMEQEYFLVKDGHPYGWCPTCPPASQGPYYCATGSECIRGRKHVDLHYEVCLQMGLKICGTNAEVAFGQWEFQVGPCEGIEMGDQLVVARWVLLRILELEGLDADFRAKPILGDWNGSGLHTNFSTEATRAPGGLEVIYQYIERLKETSSKDIIFYGVDNNERLIGKHETSKLNETTFGIGTRGTSIRIPTAVAAAQSGYMEDRRPAAGADPYLVSSRLFASCLSVDAVELDFSSPRHEREWMASTSKV,not soluble
20,MAHHHHHHMVFSTHGIRVVYNTANVDRSLYAVVHCSDGKYAEVSKDHLNRLKFIEKSSEEEDIEFDYPEAVLESLAQWTLKYGMDGVAVSSTVRPCIYRNVQHVLKDDWEREFFTTRLMNDLNIMHYLQTINAAEKYEMKGFHDFLCVCLSCKLRNEEDTELVHKIMGLEDFVEIGPSDLDEAACRYTWLDQAIKPTVRR,not soluble
21,SDLFTDGDIFQDIVDAACKRRVPVYIILDEAGVKYFLEMCQDLQLTDFRIRNIRVRSVTGVGFYMPMGRIKGTLSSRFLMVDGDKVATGSYRFTWSSSHVDRNLLLLLTGQNVEPFDTEFRELYAISEEVDLYRQLSLAGRVGLHYSSTVARKLINPKYALVSGCRHPPGEMMRWAARQQWEAGGNPEGQEEGASGGESAWRLESFLKDLVTVEQVLPPVEPIPLGELSQKDGRMVSHMHRDLKPKSREAPSRNGMGEAARGEAAPARRFSSRLFSRRAKRPAAPNGMASSVSTETSEVEFLTGKRPNENSSADISGKTSPSSAKPSNCVIS,soluble

# — the DeepSol protein solubility set
